Measured values published in the DeepSol protein solubility set.

Assay: soluble on expression in E. coli; label from the status in PepcDB or PDB records
For “MNPDEPNFIWKDLNAVRDMGCIIENELSEVLPNKRYETYSIIGRSGEFNETFNDYEPFDYEIEDVTIPYENLAAVKRWLTGKSKLITHNDEDKYLDAICTMSKPTSFKNEWGVFYTFNVEFRCQPFKRKVNEQPKVIKTKSIEITDHGDEIAFPYIEINSKGGDITLNIGSNSLTILRTQSGIVTIDTEKGKAIQEGNPLFTRGSWIKTNPGQNKLNISGNFIEAKFWNRSAYL”, the “soluble on expression in E. coli” value was “not soluble”. In the case of “MKPVKAKCEVCEHMFRVQMLTARLSNRVDKHYFICPSCKTEFISYYSNREMRQLQKEISNLYKGFRTCYTKEQAKVIQAKIDKKDLEFKWLRDILRTEIENNLPN”, the “soluble on expression in E. coli” value was “not soluble”. With “ANATVKMGSDSGALVFEPSTVTIKAGEEVKWVNNKLSPHNIVFAADGVDADTAAKLSHKGLAFAAGESFTSTFTEPGTYTYYCEPHRGAGMVGKVVVD” the “soluble on expression in E. coli” value was “soluble”. In the case of “MNEEILPILTVKDLNAGYLTNEKYIGIIHNINIELNRGKIVGITGLSGSGKTTLLKSILLETHIKSGEIIFNGKPIMPGDTKNYRRSVIYVPQNSLDSLDIIWPIEDQVKKILKQHNVVYDINKVSEIAKLIDLDISMLKLKSFEVSYGTRHKIVLLMSILMAKRDLVVLMDEPTLSQDAITAEGILNIIVKLAKDYGSSFIIVSSSPEPVFYASDFIYIMYGGWIVENGTPNDLSKWPKHPFTYEFINMLPAHKTRDRFPKFPMTEFSENGCPYSIYCKNKIKGCDSHINMFGEGHKYRCLNPVV”, the “soluble on expression in E. coli” value was “not soluble”. With “MRVAIPAEDDRGIKSNVSKHFGRSRYFVFVDIEGEDVKNVEVVEVPFEEHGPGDLPNFIKDHGAKIVLTYGIGRRAIEYFNSLGISVVTGVYGRISDVIKAFIGGKLKIDYDWKEKIEKEH” the “soluble on expression in E. coli” value was “soluble”. In the case of “GSHMGIKNDLEIRLQKLQQQGNFKNYLEQYPTDASTAAYFLIEIYNDGNIGGRSVIDAGTGNGILACGSYLLGAESVTAFDIDPDAIETAKRNCGGVNFMVADVSEISGKYDTWIMNPPFGSVVKHSDRAFIDKAFETSMWIYSIGNAKARDFLRREFSARGDVFREEKVYITVPRIYRHHSYDRARIEAVIFGVRNHSF”, the “soluble on expression in E. coli” value was “soluble”. In the case of “MGSDKIHHHHHHMNTSGDRLRILLRECHLTATDFAANRKITPQHVNNWFKRGVPMARIDEVAELLTVNARWLRSGDGPKHPNESANENTGDDKRMAIQQTRNVLRGDVEIQIYMEVESPHGVGKTVLSEAPGQKIRLPLQVLQTMGIDPKNCMCVAMVGNSMADKIQDGSILGVDRELTQVIDGEIYALEHGGILRVRYLYRLPNGGLRLRSHNDAEYPDEVFSGEDIAREKIRILGWIFWWSTLNSRRNAMLLL”, the “soluble on expression in E. coli” value was “not soluble”. In the case of “MAKVRIYQLAKELGMETQELLELLDQMGVAYKSHASTLEEKDAEAVRELVKEQRGLQEKLAEEERRKSLPRRPPVVVIMGHVDHGKTTLLDYLRKSRIAEKEAGGITQHVGAFEVKTPQGTVVFIDTPGHEAFTTIRQRGAKVADIAVIVIAADDGIMPQTEEAIAHAKAAGAKLIFAINKIDLPQADPEKVKRQLMERGFVPEEYGGDAIVIPISAKTGQGVQDLLEMILLLAELEDYRADPNAEPRGVILESKLDKQAGIIANMLVQEGTFRVGDYVVAGEAYGRIRAMMDADGNQRKEAGPGSAVQVLGFQELPHAGDVVEWVPDLEAAKEIAEERKEERKAREEEEKARRPRTMAELLRAMQEEGRKELNLILRADTQGSLEAIQHILARESTEDVKINILLAQVGAPTESDVLLAQTANAAILAFGVNPPGSVKKKAEEKGVLLKTFRIIYDLVDEVRNMVKGQREPQYKEEVLGQAEVRAIFRLPTGKQVAGCMVTQGRIPRNAEVRVLRDGQVIWQGRIASLKRFKEDVREVAQGYECGIGLDGFDDFREGDVIEAFQMVEVPA”, the “soluble on expression in E. coli” value was “soluble”. With “MMSVPVMADEGTKWDWPLQKGDGVVNVLDDDDHFEVGLEAHNFLPKEIEVKNIGELLEIHMEHNVKKDSFGDVSRNITRCYKLPKNVDMKTIKSNLDSHGILHIEARKMH” the “soluble on expression in E. coli” value was “not soluble”. In the case of “MKALCLLLLPVLGLLVSSKTLCSMEEAINERIQEVAGSLIFRAISSIGLECQSVTSRGDLATCPRGFAVTGCTCGSACGSWDVRAETTCHCQCAGMDWTGARCCRVQPLEHHHHHH”, the “soluble on expression in E. coli” value was “not soluble”. With “SLVYDSNNNLIADLGAEKRESISSDSIPMKLVNAVTSIEDHRFFKHRGVDIYRIIGAAWSNLLHKSTQGGSTLDQQLIKLAYFSTKESDQTLKRKAQEVWLSLQMEKKYTKEEILTFYVNKVYMGNGNYGMRTAAKSYYGKDLKDLSIAQLATLAGIPQAPTQYDPYAQP” the “soluble on expression in E. coli” value was “not soluble”. For “VQAANLMDRIKANPVSEKNIDEKFIYNTADFSIELFKNSIDDKENSLISPLSAMLALAMTANGADNETLAQMEKALGKDISIEDLNKYLYTYMKKLPNEEKSKLTIANSIWFKENDFMPSKDFLQIIADYYKADIFKAAFDSSTVSDINNWVKSKTNGMIDKILNKIDPEDVMYLINAVAFDAEWETVYEKASVHEDIFTDVYGNRQKVEFMNSEENLYIEEENAIGFVKPYAKNHYSFVAILPDENISVNEYIKTLTGQKFIDLIKNAKITLVRASLPKFKYEYTIKMNETLESLGMTDAFLPDKADFSKLGKSDIGNLYISEVLHKTFISVDELGTKAGAVTSVDITAAGIPVNFKTVKLNRPFIFAIIDNSTNLPIFIGTVLSL”, the “soluble on expression in E. coli” value was “soluble”. With “MSSVMSHTGGKEGTYPGTRASATMIGDDETNWGTKSLAILDMPFTAVMDTLLLPWDVFRKDSSVRSRVEKSEANAQATNAVIPPARMPDNLEHHHHHH” the “soluble on expression in E. coli” value was “not soluble”. In the case of “DKQKALKKIAKCLELGNSANINEAANAIKMAHNLMLKYGLDKDDIEFIKMGKTQSTHLLPAAISSGILRVIRGINTRFGVEAVLLNHKGLKRVEFIGEADRAIFAAFAFDIIYREMNEQTGQFRNSFAGTGTSSLEVTRRVNSFVSGWIEGALEKLPIITPDEDSMNKINSYIDKEFENIDRETFKQQLREAMKNLTEDYETGLKKGRRVSVNRPIHGAQAPKLLK”, the “soluble on expression in E. coli” value was “not soluble”. In the case of “MKRTKKEFTPYNEYHDRPFELKWATAFALGELQEGIEASDEYSKRAFERLPQQTTEEIEEYLEQSLKNNQVLEIQLNTLDDFGRVQPPIVGVFEGMSSMEYVKVGHTHILFEEIRHIKSHEFTKWSSLD”, the “soluble on expression in E. coli” value was “not soluble”. For “MLAVSSAIVSSAMYILSFPGQASGITKEQVTKHMKKESFKQADIYYTSKEKSLLPLTKETLEYAVSINQIMIGYSNQKPIDIIFFLMKNRWRLTPVYWMLEHHHHHH”, the “soluble on expression in E. coli” value was “not soluble”. With “MGHHHHHHSHMFIASKKSYFEAVYRSTVSSHSEEFWKSDDPVYFTQYKKQCNRLPNAYLGTLHSASKYSENFRHYVATFSNSPLDFPQSVFNERNPCEYSVPYLDSALQCSAKTLVGCSVSTTERNEYEVCKEATRCFKDAMSHKVLKVFLSNLSWFLKGHYKSKQAFLEPFQKQLILHSFMFVASIKCPETTTKLFDEFKFLLDMLYFDNTDLLTFLQKSPAFLIPRRHGKTWIVTAIISMLLTSVDDLHIGYVAHQKHVSLAVFLEISNILLAWFPRKNIDIKKENGVILYSHPGKKSSTLMCATCFNKNVSVI” the “soluble on expression in E. coli” value was “not soluble”. In the case of “GSVPVILEVAGIGKYAISIGGERQEGLTEEMVTQLSRQEFDKDNNTLFLVGGAKEVPYEEVIKALNLLHLAGIK”, the “soluble on expression in E. coli” value was “soluble”. With “SLKIAIVRLSALGDIIQSAVVLQFIKNFKKDIEIHWFVDEKFEGILKNHPLINKLYALPLKDKKILKSLKILLKARKNNYNAVIDLQGLIKSAIVSRILSRNNFGFDKNSLKESFAHNFYNQKLELDYNENVFVRYLSLTSFMLNTDFNVKNLAFKQDIFSVDENLKQLLNNKLKLDKNEKNILIHVGSSVENKIYPKTKLAILCKLLINEFQQTKIWLAWGNVKEYEFAKEVLNLSGIDETHIELAPKFNLEELMAFTKMMNLIIGNDSGPTHLAFALNKASITIFGATPSYRNAFQTHINKIIDAGKKIQNAKHIDKSDFCITRIEEEDIFKLAKGLLN” the “soluble on expression in E. coli” value was “soluble”. With “GHMGAWLASLKQTLGLLPADRKIRVLMLGLDNAGKTSILYRLHLGDVVTTVPTVGVNLETLQYKNISFEVWDLGGQTGVRPYWRCYFSDTDAVIYVVDSTDRDRMGVAKHELYALLDEDELRKSLLLIFANKQDLPDAASEAEIAEQLGVSSIMNRTWTIVKSSSKTGDGLVEGMDWLVERLREQGLGA” the “soluble on expression in E. coli” value was “soluble”.
